Values quoted from earlier work as cited in publication PMC6082625.
Like-named read-outs stand apart in the source and are kept apart here.

Key:
[1] = biological target: Hsp90 (Homo sapiens) (UniProt P07900)
[2] = biological target: J-domain protein (DnaJ) J domain (Escherichia coli) (UniProt P08622)
[3] = biological target: Hsp90 (Homo sapiens) (UniProt P07900); remark: listed apart in the source

Chain of Hsp70 (DnaK) (P0A6Y8 2-638): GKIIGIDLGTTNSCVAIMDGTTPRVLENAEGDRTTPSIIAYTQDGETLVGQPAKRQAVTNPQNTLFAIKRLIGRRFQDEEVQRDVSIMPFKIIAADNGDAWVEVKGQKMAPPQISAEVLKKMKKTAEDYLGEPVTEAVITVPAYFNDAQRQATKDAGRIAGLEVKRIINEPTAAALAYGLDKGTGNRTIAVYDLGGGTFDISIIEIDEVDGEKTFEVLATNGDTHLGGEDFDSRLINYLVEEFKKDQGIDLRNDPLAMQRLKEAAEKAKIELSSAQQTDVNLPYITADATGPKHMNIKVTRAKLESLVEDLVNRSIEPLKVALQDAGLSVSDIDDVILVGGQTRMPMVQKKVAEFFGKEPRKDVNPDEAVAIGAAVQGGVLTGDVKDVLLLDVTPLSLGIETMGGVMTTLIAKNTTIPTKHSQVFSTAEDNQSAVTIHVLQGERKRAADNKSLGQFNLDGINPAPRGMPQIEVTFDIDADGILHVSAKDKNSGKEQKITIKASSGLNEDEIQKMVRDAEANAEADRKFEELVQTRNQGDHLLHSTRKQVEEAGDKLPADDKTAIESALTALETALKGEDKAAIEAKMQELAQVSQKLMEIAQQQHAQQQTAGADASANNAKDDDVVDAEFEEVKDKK
Chain of p23 (Q15185 whole entry): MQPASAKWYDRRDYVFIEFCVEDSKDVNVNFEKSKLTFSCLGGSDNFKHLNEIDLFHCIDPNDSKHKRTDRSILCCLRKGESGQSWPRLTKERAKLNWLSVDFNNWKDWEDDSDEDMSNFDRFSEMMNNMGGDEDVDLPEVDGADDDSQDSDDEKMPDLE
Chain of J-domain protein (DnaJ) J domain (Escherichia coli) (P08622 1-75): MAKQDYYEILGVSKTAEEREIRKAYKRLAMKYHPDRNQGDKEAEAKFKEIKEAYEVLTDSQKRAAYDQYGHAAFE
Chain of Aha1 (O95433 whole entry): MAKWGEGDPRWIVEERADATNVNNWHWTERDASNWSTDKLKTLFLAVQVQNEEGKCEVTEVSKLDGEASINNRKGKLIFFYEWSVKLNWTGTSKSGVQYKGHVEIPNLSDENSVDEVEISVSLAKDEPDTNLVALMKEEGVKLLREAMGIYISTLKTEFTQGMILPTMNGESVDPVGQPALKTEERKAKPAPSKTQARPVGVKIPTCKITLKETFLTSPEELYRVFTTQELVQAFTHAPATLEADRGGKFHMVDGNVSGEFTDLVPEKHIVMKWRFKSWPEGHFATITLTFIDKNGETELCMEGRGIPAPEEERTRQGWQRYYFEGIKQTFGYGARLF

In the case of Aha1 (from UniProt O95433), the Kd [1] is listed as 0.7 µM.

For Hsp70 (DnaK) (from UniProt P0A6Y8), the Kd [2] is given as 10 µM.

In the case of p23 (from UniProt Q15185), the Kd [3] is listed as 1 µM.
